Data on 37 sequences can be found in the supplement of paper PMC7877785.

A short description of this series: self-splicing fitness, log relative to wild type (ln ratio); higher = more splicing; Tetrahymena group I intron in knt gene, E. coli kanamycin selection, DiMSum; sequences stand for … in CUCUCU…GGAGGGAAAAGUUAUCAGGCAUGCACCUGGUAGCUAGUCUUUAAACCAAUAGAUUGCAUCGGUUUAAAAGGCAAGACCGUCAAAUUGCGGGAAAGGGGUCAACAGCCGUUCAGUACCAAGUCUCAGGGGAAACUUUGAGAUGGCCUUGCAAAGGGUAUGGUAAUAAGCUGACGGACAUGGUCCUAACCACGCAGCCAAGUCCUAAGUCAACAGAUCUUCUGUUGAUAUGGAUGCAGUUCACAGACUAAAUGUCGGUCGGGGAAGAUGUAUUCUUCUCAUAAGAUAUAGUCGGACCUCUCCUUAAUGGGAGCUAGCGGAUGAAGUGAUGCAACACUGGAGCCGCUGGGAACUAAUUUGUAUGCGAAAGUAUAUUGAUUAGUUUUGGAGUACUCGUGGUCG
A digest of the protocol:
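Library with all eight P1ex-region intron nucleotides randomised, intron inside the knt kanamycin-resistance gene on pET-22b(+), in E. coli BL21(DE3). Cells grew overnight at 37°C or 30°C on LB agar with or without 25 μg/mL kanamycin (plus 100 μg/mL carbenicillin, 50 μM IPTG, 0.2% rhamnose), in six replicate transformations. Pooled colonies were amplicon-sequenced on Illumina HiSeq 2500. DiMSum fitness is the error-weighted combination of wild-type-normalised replicate fold changes, kanamycin versus none.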

± gives the uncertainty stated by the source.

As for GCGUAGCAAUAUUACGUAUC, the “self-splicing fitness (ln)” value reads like this: (30 °C) -3.35 ± 0.38; (37 °C) -0.739 ± 0.2.

Consider GCGAAGCAAUAUUACGUGUG, for which the “self-splicing fitness (ln)” value (30 °C) is -2.61 ± 0.12 and the “self-splicing fitness (ln)” value (37 °C) was -1.67 ± 0.11.

As for UAGGAGCAAUAUUACGACCA, the “self-splicing fitness (ln)” value is, setting by setting: (30 °C) -1.68 ± 0.13; (37 °C) -0.415 ± 0.19.

For UGUGAGCAAUAUUACGAAUC, where the note is “30 °C”, the “self-splicing fitness (ln)” value is -2.91 ± 0.38.

For UCCUAGCAAUAUUACGAUUG, the “self-splicing fitness (ln)” value reads like this: (30 °C) -2.56 ± 0.24; (37 °C) -2.49 ± 0.45.

Take UAACAGCAAUAUUACGUCUU: the “self-splicing fitness (ln)” value is -1.12 ± 0.052 (30 °C) and -0.0714 ± 0.06 (37 °C).

Regarding CCACAGCAAUAUUACGGGCU, the “self-splicing fitness (ln)” value is -4.83 ± 0.27 (30 °C) and -3.07 ± 0.18 (37 °C).

On to AGCUAGCAAUAUUACGAUGA, for which the “self-splicing fitness (ln)” value is -2.51 ± 0.21 (30 °C) and -2.54 ± 0.15 (37 °C).

As to GCCUAGCAAUAUUACGGGUA, the “self-splicing fitness (ln)” value (30 °C) was -0.787 ± 0.072 and the “self-splicing fitness (ln)” value (37 °C) is 0.611 ± 0.067.

For AUGAAGCAAUAUUACGUAUA, the “self-splicing fitness (ln)” value runs as follows: (30 °C) -1.53 ± 0.11; (37 °C) -0.647 ± 0.11.

As for GUCGAGCAAUAUUACGGUGA, the “self-splicing fitness (ln)” value by setting is: (30 °C) -2.64 ± 0.15; (37 °C) -1.91 ± 0.2.

On to UAUGAGCAAUAUUACGUAUG, for which the “self-splicing fitness (ln)” value runs as follows: (30 °C) -2.35 ± 0.22; (37 °C) -1.58 ± 0.27.

For GAAAAGCAAUAUUACGAGCG, the “self-splicing fitness (ln)” value is, setting by setting: (30 °C) -0.699 ± 0.14; (37 °C) -0.579 ± 0.15.

As for CAGGAGCAAUAUUACGCGGC, the “self-splicing fitness (ln)” value by setting is: (30 °C) -1.43 ± 0.36; (37 °C) -1.14 ± 0.41.

As for UGGUAGCAAUAUUACGUUGA, the “self-splicing fitness (ln)” value is -0.502 ± 0.17 (30 °C) and -0.66 ± 0.15 (37 °C).

Turning to GGCCAGCAAUAUUACGAUAC, the “self-splicing fitness (ln)” value reads like this: (30 °C) -2.04 ± 0.11; (37 °C) -0.501 ± 0.13.

With UGACAGCAAUAUUACGCUGU, the “self-splicing fitness (ln)” value is, setting by setting: (30 °C) -4.01 ± 0.24; (37 °C) -3.42 ± 0.27.

With AUUGAGCAAUAUUACGUUUU, the “self-splicing fitness (ln)” value runs as follows: (30 °C) -3.05 ± 0.17; (37 °C) -1.38 ± 0.22.

Consider GGCCAGCAAUAUUACGGAAC, for which the “self-splicing fitness (ln)” value by setting is: (30 °C) -0.685 ± 0.1; (37 °C) -0.981 ± 0.14.

Consider GCAUAGCAAUAUUACGAGAG, for which the “self-splicing fitness (ln)” value was -2.71 ± 0.27 (30 °C) and -2.35 ± 0.21 (37 °C).

With AUCCAGCAAUAUUACGAUAA, the “self-splicing fitness (ln)” value is -1.56 ± 0.15 (30 °C) and -1.03 ± 0.19 (37 °C).

For the sequence AAGGAGCAAUAUUACGCGCU, the “self-splicing fitness (ln)” value (30 °C) is -3.5 ± 0.44 and the “self-splicing fitness (ln)” value (37 °C) is -1.5 ± 0.4.

On to CAGUAGCAAUAUUACGUCCU, for which the “self-splicing fitness (ln)” value reads like this: (30 °C) -3.2 ± 0.18; (37 °C) -1.43 ± 0.14.

Regarding AAGGAGCAAUAUUACGCAAU, the “self-splicing fitness (ln)” value reads like this: (30 °C) -2.67 ± 0.17; (37 °C) -1.71 ± 0.19.

For CACGAGCAAUAUUACGCUCU, the “self-splicing fitness (ln)” value was -2.57 ± 0.18 (30 °C) and -2.93 ± 0.28 (37 °C).

On to GAACAGCAAUAUUACGCAAG, for which the “self-splicing fitness (ln)” value is -3.31 ± 0.23 (30 °C) and -1.41 ± 0.17 (37 °C).

As for AGGCAGCAAUAUUACGGGAG, the “self-splicing fitness (ln)” value is, setting by setting: (30 °C) -4.08 ± 0.22; (37 °C) -1.53 ± 0.12.

For the sequence GAAAAGCAAUAUUACGUUGU, the “self-splicing fitness (ln)” value is -4.51 ± 0.2 (30 °C) and -2.22 ± 0.12 (37 °C).

For the sequence ACGAAGCAAUAUUACGUAUG, the “self-splicing fitness (ln)” value runs as follows: (30 °C) -1.94 ± 0.14; (37 °C) -2.7 ± 0.23.

In the case of CGAAAGCAAUAUUACGAUGA, the “self-splicing fitness (ln)” value is, setting by setting: (30 °C) -0.9 ± 0.08; (37 °C) -0.508 ± 0.088.

UCUCAGCAAUAUUACGACUG: the “self-splicing fitness (ln)” value is -2.79 ± 0.17 (30 °C) and -3.11 ± 0.28 (37 °C).

With CGUCAGCAAUAUUACGAAUC, the “self-splicing fitness (ln)” value is, setting by setting: (30 °C) -3.1 ± 0.27; (37 °C) -0.891 ± 0.33.

For UUGAAGCAAUAUUACGUACG, the “self-splicing fitness (ln)” value is, setting by setting: (30 °C) -0.166 ± 0.053; (37 °C) 0.427 ± 0.074.

AGGAAGCAAUAUUACGUCAU: the “self-splicing fitness (ln)” value by setting is: (30 °C) -3.32 ± 0.16; (37 °C) -0.295 ± 0.12.

Consider CGAAAGCAAUAUUACGUUGA, for which the “self-splicing fitness (ln)” value is -3.72 ± 0.18 (30 °C) and -2.28 ± 0.16 (37 °C).

For the sequence CGACAGCAAUAUUACGGCCA, the “self-splicing fitness (ln)” value is, setting by setting: (30 °C) -1.16 ± 0.15; (37 °C) -0.534 ± 0.18.

As to UUGCAGCAAUAUUACGCUUA, the “self-splicing fitness (ln)” value is -0.263 ± 0.12 (30 °C) and -0.0443 ± 0.13 (37 °C).
